Paper PMC4243253 (Biochemical Journal, 2014)

Molecular target: the molecule itself
Assay: SEC

B1: Burkholderia cenocepacia kynurenine formamidase KynB (enzyme)
chain: MDTLWDISPPVSPATPVWPGDTPVAVERVWRMEAGSPVNVARLTLSPHTGAHCDAPLHYDADGAPIGAVPLDTYLGPCRVIHCIGAAPVVRPADVEAALDGVPPRVLLRTYARAAVEQWDSNFCAVAPDTVDLLAAHGVKLIGIDTPSLDPQESKTMDAHRRVRAHRMAILEGIVLDDVPPGDYELIALPLKFATLDASPVRAVLRALPAQAS
notes: also called BcKynB; KFase
stoichiometry N: 2

B2: Pseudomonas aeruginosa kynurenine formamidase KynB, His-tagged (enzyme)
chain: MTSLRYWDISPALDPNTPTWPGDTPFQQEWAARLDEQCPVNVGRITLSPHTGAHVDGPLHYRADGLPIGQVPLDIYMGPCRVIHCIGANPLVTPEHLAGQLDDLPSRVLLRTFERVPANWPEGFCAIAPATIECLAERGVRLVGIDTPSLDPQHSKTLDAHHAVGRHGMAILEGVVLDDVPAGDYELLALPLKFTHLDASPVRAVLRALPTAE
notes: also called PaKynB; PaKynB-His; source: E. coli BL21(DE3)pLysS, purified (HisTrap, SEC Superdex75); not shown: His6, N-terminal, kept
stoichiometry N: 2
